Experimental data taken from patent CN111363035A (DONGGUAN PENGZHI BIOTECHNOLOGY CO LTD, dated 2020).

Target: T1, 重组FABP蛋白(自产，140618) (human, UniProt P05413 1-133, limits assumed)
T1 construct: The coated protein is only called 'recombinant FABP protein'; also called 心型脂肪酸结合蛋白; H-FABP
Test: indirect ELISA, recombinant FABP protein coated, CHO transient supernatant, goat anti-mouse IgG-HRP

T1 sequence (P05413 whole entry): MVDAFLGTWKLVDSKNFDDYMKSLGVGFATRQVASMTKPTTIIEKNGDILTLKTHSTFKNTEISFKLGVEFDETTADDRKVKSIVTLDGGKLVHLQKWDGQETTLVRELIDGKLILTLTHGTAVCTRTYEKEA

B1: Anti-FABP 8F3 重组抗体 (抗人心型脂肪酸结合蛋白的重组抗体) (antibody, V domains shown)
VH: QVQLQQPGADLVRPGASVKLSCKTSGYSFTGYFMNWVKQRPGQGLEWIGMIHASDSSTRLNQKFKDKATLTVDKSSTTVYMQFSSPTSEDSAVYYCARGIRDFAYWGQGTLVTVSA
VL: DIVMTQSQKFMSTSVGDRVSITCKASNNIASSVAWYQLRPGQSPKALIYSPTYRYSGIPDRFTGSGSGTDFTLTISNVQSEDLAEYFCQQYNSYPLSFGSGTKLEIK
OD450 (reference 630 nm) at 1000-fold dilution of the supernatant: > 1 OD
